Literature values, collected in US10870689B2, “ApoM-Fc fusion proteins, complexes thereof with sphingosine 1-phosphate (S1P), and methods for treating vascular and non-vascular diseases” (Children's Medical Center Corporation, priority 2016, dated 2020).

How the values were obtained:
[1] = Sevvana et al. 2010; read-out: relative affinity for S1P
[2] = not associated with HDL; Faber et al. 2006

Row | Molecule | Kd [1] [nM] | in vivo half-life [2]
1 | recombinant ApoM: Bacterially expressed recombinant human ApoM (protein, UniProt O95445 1-188, looked up) Apolipoprotein M: MFHQIWAALLYFYGIILNSIYQCPEHSQLTTLGVDGKEFPEVHLGQWYFIAGAAPTKEELATFDPVDNIVFNMAAGSAPMQLHLRATIRMKDGLCVPRKWIYHLTEGSTDLRTEGRPDMKTELFSSSCPGGIMLNETGQGYQRFLLYNRSPHPPEKCVEEFKSLTSCLDSKAFLLTPRNQEACELSNN | ~1000 | –
2 | Free ApoM: ApoM that is not associated with HDL (protein, UniProt O95445 1-188, looked up) Apolipoprotein M: MFHQIWAALLYFYGIILNSIYQCPEHSQLTTLGVDGKEFPEVHLGQWYFIAGAAPTKEELATFDPVDNIVFNMAAGSAPMQLHLRATIRMKDGLCVPRKWIYHLTEGSTDLRTEGRPDMKTELFSSSCPGGIMLNETGQGYQRFLLYNRSPHPPEKCVEEFKSLTSCLDSKAFLLTPRNQEACELSNN | – | less than 15 minutes
